The text below walks through data of patent US20050069887A1, “Dna synthesis promoters dna polymerase-associated factors and utilization thereof” (priority 2001, published 2005).

In one assay the target is T1, KOD-plus DNA polymerase (Thermococcus kodakarensis, UniProt P77933, DEL407-766/DEL853-1389).
T1 construct: purchased Toyobo
It counts as biochemical, Thermococcus kodakaraensis KOD1. The settings on record: 2 mM potassium oxalate, FIG. 14. The protocol:
Oxalate ion and DMSO were investigated for their synergistic effectiveness for hot start enzyme in amplification of a target DNA which is difficult to amplify by usual PCR, using a KOD-plus DNA polymerase, i.e., hot start enzyme. Potassium oxalate was added to the PCR buffer supplied with KOD-plus (TOYOBO CO., LTD.) to attain a final concentration of 2 mM. Also used were 0.2 mM dNTPs and […] of a pair of primers of SEQ ID Nos:18 and 19, and 1.0 U KOD-plus DNA polymerase. 0.5 μL of cDNA obtained by reverse transcription of 500 ng of total RNA derived from human cell line K562 with ThermoScript (Invitrogen) was used as a template. This reaction mixture was subjected to PCR by using GeneAmp2400 (PE Applied Biosystems) to investigate the influence on the PCR results of varying the concentration of DMSO. The PCR conditions were as follows: 1 preliminary reaction of 94° C. for 2 minutes, and then 40 cycles of 94° C. for 15 seconds, 60° C. for 30 seconds and 68° C. for 9 minutes.

The subject of the next assay is KOD Dash DNA polymerase. Kind of assay: PCR using mixed-type KOD Dash DNA polymerase with PCNA/RFC (Example 3-15). It counts as biochemical, Thermococcus kodakaraensis KOD1. To be noted: 1 ng template, FIG. 34. The protocol: The effect produced by the combined use of KOD-PCNA protein and the KOD-RFC complex in PCR using a mixture of two kinds of DNA polymerases was investigated with the same target DNA and reaction solution as in Example 3-12
1 ng of genomic DNA derived from human cell line K562 was used as a template. KOD Dash DNA polymerase, which is a mixture of KOD DNA polymerase and KOD (exo-) DNA polymerase which has lost KOD 3′-5′ exonuclease activity, was used as the mixed-type DNA polymerase.

Assay [1] deals with T2, KOD DNA polymerase (Thermococcus kodakarensis, UniProt P77933, DEL407-766/DEL853-1389). Kind of assay: PCR of 3.6 kb globin cluster DNA using KOD DNA polymerase with PCNA/RFC (Examples 3-12 to 3-14). It is filed as biochemical, Thermococcus kodakaraensis KOD1. The protocol: The effect produced by the addition of KOD-PCNA protein on PCR amplification of a 3.6 kb DNA in a human […] cluster was investigated. The PCR buffer supplied with KOD-Plus (TOYOBO CO.,LTD), 0.2 mM dNTPs and 0.3 μM of a pair of primers of SEQ ID Nos:60 and 61 were used. 1 U KOD DNA polymerase was used as a heat-resistant DNA polymerase, and genomic DNA derived from human cell line K562 was used as a template. This reaction mixture was subjected to PCR using GeneAmp2400 (PE Applied Biosystems) to investigate the difference in the PCR results caused by the presence or absence of PCNA. The PCR conditions were as follows: 1 preliminary reaction of 94° C. for 2 minutes; and then 35 cycles of 94° C. for 20 seconds, 60° C. for 30 seconds and 68° C. for 4 minutes.
The effect produced by the addition of the KOD-RFC complex was investigated with the same target DNA and reaction solution as in Example 3-12. The amount of RFC effective for PCR was investigate by using 1 ng of genomic DNA derived from human cell line K562 as a template.
The effect produced by the addition of KOD-PCNA protein and KOD-RFC complex was investigated with the same target DNA and reaction solution as in Example 3-12. 1 ng of genomic DNA derived from human cell line K562 was used as a template and their optimal ratios were investigated.

Assay [2] deals with T2, KOD DNA polymerase. Kind of assay: DNA elongation by KOD DNA polymerase on primed M13 mp18 DNA (Examples 3-10, 3-11). It is filed as biochemical, Thermococcus kodakaraensis KOD1. The settings on record: for elongation (size of synthesized DNA): 75° C. The protocol:
150 fmol of KOD DNA polymerase was reacted with 1.5 pmol of DNA obtained by annealing an M13 P7 primer (SEQ ID NO:59) to M13 mp18 DNA (circular single-stranded DNA) to determine processivity. 450 fmol, 1.5 pmol, 4.5 pmol and 15 pmol samples of KOD-PCNA obtained in Example 3-6 were added to reaction buffer solutions [20 mM Tris-HCl (pH 7.5 at 75° C.), 10 mM KCl, 6 mM (NH4)2SO4, 2 mM MgCl2, 0.1% Triton X-100, 10 μg/ml BSA]. The mixtures were reacted at 75° C. for varying times: 30 seconds, 60 seconds and 120 seconds, to investigate their degrees of elongation. In the course of the elongation reaction DNA samples were withdrawn at the above reaction times and added to the same quantity of a stop solution (60 mM EDTA, […], 0.1% BPB, 30% glycerol). The obtained DNA samples were separated by 1% alkaline agarose electrophoresis and analyzed to determine the sizes of the synthesized DNA.
KOD DNA polymerase reactions were conducted in a similar manner to Example 3-10 either in the presence of KOD-PCNA or in the copresence of KOD-PCNA and KOD-RFC by using an circular single stranded DNA, which was annealed with a primer, as a substrate. […] This is presumably because almost all the KOD DNA polymerase molecules were available to react with PCNA in the presence of the RFC complex.

Another assay concerns pMol 21. To be noted: PCR product fidelity, rpsL / pMol 21 method; cited from earlier work.
Where [3] appears, read: PCNA added in 30 times the molar amount of DNA polymerase.

Read-outs that look alike come from different tables or passages of the source.

Consider `C[S+](C)[O-]` [DMSO, dimethylsulfoxide], for which the “amplification of target DNA” value on KOD-plus DNA polymerase (5% DMSO) is reported as “sufficient amplification was observed”; at KOD-plus DNA polymerase (in the presence of DMSO, cDNA template) it was “an increase in amplification amount was observed”.

B1: RFC: replication factor C complex of KOD-mRFCS and KOD-RFCL derived from KOD1 (protein)
chain 1: MSEEVKEVKILEKPWVEKYRPQRLEDIVGQDHIVKRLKHYVKTGSMPHLLFAGPPGVGKTTAALALARELFGENWRHNFLELNASDERGINVIREKVKEFARTKPIGGASFKIIFLDEADALTQDAQQALRRTMEMFSNNVRFILSCNYSSKIIEPIQSRCAIFRFRPLRDEDIAKRIRYIAENEGLELTEEGLQAILYVAEGDLRRAINVLQAAAALDTKITDENVFLVASRARPEDVREMMTLALEGNFLKAREKLRDILLRQGLSGEDVLIQMHKEVFNLPIPEDKKVALADKIGEYNFRLVEGANEMIQLEALLAQFTIMGK
chain 2: MTEVPWVEKYRPRKLSEIVNQEKALEQVRAWVEAWLHGNPPKKKALLLAGPPGVGKTTTVYALANEYGFEVIELNASDERTYEKIERYVQAAYTMDILGKRRKLIFLDEADNIEPSGAREIAKLIDKARNPIIMSANHYWEVPREIRNKAQIVEYKRLTQRDIIKALVRILKREGLEVPKEVLYEIAKRANGDLRAAVNDLQTVVTGGVEDAVEVLAYRDTEKSVFQALAQLFATDNAKRAKLAVLGVDMMPNELLQWIDENVPYVYYRPEDIARAYEALSRADIYLGRAQRTGNYGLWKYATDMMTAGVAVAGIKKKGFVKIYPPKTIKLLTESKEERSLRDSVIKKIMSEMHMAKLEAIETLRYLRVIFENNPDLAAHFVVFLDLSEKEVEFITGDKEKAKTIWAKSMNIEKKLKKEGELEARAKEAERRVEAAEEEETMEAGEPEEELEEVEEEELTEEELEEAEEEIETVGKKEKPEKEKTKKGKQATLFDFLKK
As to B1, the “amplification of the target DNA” value in the assay on KOD Dash DNA polymerase (further addition of RFC to PCNA) is given as “amplification of the target DNA was greatly clarified”; with KOD DNA polymerase [1] (1.5 pmol further added to 10 fmol of PCNA, 1 ng template, FIG. 33), “sufficient amplification was observed”.

B2: PCNA: proliferating cell nuclear antigen derived from Thermococcus kodakaraensis KOD1, SEQ ID NO: 2 (protein)
chain: MPFEVVFDGAKEFADLIATASNLIDEAAFKFTEEGISMRAMDPSRVVLIDLNLPESIFSKYEVEEPETIGINMDQFKKILKRGKAKDTLILRKGDENFLEITFEGTAKRTFRLPLIDVEELELELPELPFTAKVVLLGEVLKEGIKDASLVSDAIKFIAKENEFTMKAEGETNEVEIRLTLEDEGLLDLEVEEETKSAYGISYLSDMVKGIGKADEVILRFGNEMPLQMEYMIRDEGRLTFLLAPRVEE
modifications: Thermococcus kodakaraensis KOD1; KOD-PCNA
With B2, the “amplification of the target DNA” value in the assay on KOD Dash DNA polymerase (addition of PCNA) is on record as “amplification of the target DNA was made somewhat clearer”; with KOD DNA polymerase [1] (10 fmol of PCNA alone, 1 ng template, FIG. 33), “amplification of the target DNA was barely observed together with a smear”; with KOD DNA polymerase [1] (30 fmol of PCNA, 1 ng template DNA, FIG. 31) it was “amplification of the target DNA was observed”; with KOD DNA polymerase [1] (PCNA added, 3 ng template DNA, FIG. 31), “amplification of the target DNA was more clearly observed”. The “DNA elongation rate of KOD DNA polymerase” value with KOD DNA polymerase [2] (setting [3]) was 120 bases per second. Further, in the assay with KOD DNA polymerase [2] (setting [3]), the “DNA elongation rate relative to the sample with no PCNA added” value was “about 3 times”. In the assay with KOD DNA polymerase [2] (only PCNA added, FIG. 30), the DNA elongation rate entry is “an increase in the DNA elongation rate was observed”. In addition, the “increase of DNA elongation rate compared to single use of KOD DNA polymerase” value with KOD DNA polymerase [2] (using KOD-PCNA) is on record as “several fold”. Also, the “increase of PCR sensitivity” value with KOD DNA polymerase [1] (addition of PCNA) is given as “at least 3 fold”.

B3: KOD DNA polymerase: Thermococcus kodakaraensis KOD1-derived thermostable α-type DNA polymerase, SEQ ID NO: 1 (protein)
chain: MILDTDYITEDGKPVIRIFKKENGEFKIEYDRTFEPYFYALLKDDSAIEEVKKITAERHGTVVTVKRVEKVQKKFLGRPVEVWKLYFTHPQDVPAIRDKIREHPAVIDIYEYDIPFAKRYLIDKGLVPMEGDEELKMLAFDIETLYHEGEEFAEGPILMISYADEEGARVITWKNVDLPYVDVVSTEREMIKRFLRVVKEKDPDVLITYNGDNFDFAYLKKRCEKLGINFALGRDGSEPKIQRMGDRFAVEVKGRIHFDLYPVIRRTINLPTYTLEAVYEAVFGQPKEKVYAEEITTAWETGENLERVARYSMEDAKVTYELGKEFLPMEAQLSRLIGQSLWDVSRSSTGNLVEWFLLRKAYERNELAPNKPDEKELARRRQSYEGGYVKEPERGLWENIVYLDFRSLYPSIIITHNVSPDTLNREGCKEYDVAPQVGHRFCKDFPGFIPSLLGDLLEERQKIKKKMKATIDPIERKLLDYRQRAIKILANSYYGYYGYARARWYCKECAESVTAWGREYITMTIKEIEEKYGFKVIYSDTDGFFATIPGADAETVKKKAMEFLKYINAKLPGALELEYEGFYKRGFFVTKKKYAVIDEEGKITTRGLEIVRRDWSEIAKETQARVLEALLKDGDVEKAVRIVKEVTEKLSKYEVPPEKLVIHEQITRDLKDYKATGPHVAVAKRLAARGVKIRPGTVISYIVLKGSGRIGDRAIPFDEFDPTKHKYDAEYYIENQVLPAVERILRAFGYRKEDLRYQKTRQVGLSAWLKPKGT
modifications: Thermococcus kodakaraensis KOD1; KOD DNA polymerase
For B3, in the assay with pMol 21, the mutation rate is given as no more than 0.1%. The molecule further gave a processivity in the assay with KOD DNA polymerase [2] (no PCNA added) of no less than 5 kb. In addition, the “elongation (size of synthesized DNA)” value with KOD DNA polymerase [2] (no PCNA added, reaction time 30 seconds) was 1.2 kb; in the assay with KOD DNA polymerase [2] (no PCNA added, reaction time 60 seconds) it was 2.5 kb; with KOD DNA polymerase [2] (no PCNA added, reaction time 120 seconds) it was 5 kb. The elongation rate result with KOD DNA polymerase [2] (no PCNA, 1.5 pmol substrate DNA relative to 150 fmol DNA polymerase) is listed as “about 40 bases per second”.
